Measurements reported in patent publication US20220213198A1, “METHOD OF TREATMENT” (The Council of the Queensland Institute of Medical Research, priority 2019, published 2022).

Test system: B16F10 melanoma cells
Assay: B16F10 experimental lung metastasis model
Assay type: in vivo, mouse
Description: FIG. 2. […] (A) The schematic and timeline of expanding MAIT cells from splenocytes derived from C57BL/6 WT mice with IL-2 and 5-OP-RU, for sorting and adoptive transfer into tumor-bearing mice. (B, C) Groups of WT or MR1^−/− or Rag2cγ^−/− mice (n=5-6/group) were injected i.v. with (B) 1×10^5 or (C) 1×10^4 B16F10 melanoma cells. In some groups, sorted MAIT or T conventional cells (cT) (non-MAIT αβ^+ T cells) (2×10^5 cells/mouse) from C57BL/6 (B) WT or (C) TCRδ^−/− mice were i.v. injected into the indicated groups of mice one day before tumor inoculation. (C) One group of mice received i.v injection of media alone as a control. (B, C) On day 14 relative to tumor cell inoculation, lungs were harvested and the metastatic burden was quantified by counting colonies on the lung surface. Data presented as mean±SEM. (D) B16F10 or LWT1 melanoma cells were stimulated in vitro with DMSO or 5-OP-RU (100 nM) for 4 hours before cell surface MR1 expression was determined by flow cytometry. Groups of C57BL/6 WT or MR1^−/− mice (n=5-6/group) were i.v. injected with (E) 1×10^5 B16F10 or (F) 5×10^5 LWT1 cells melanoma cells pulsed with DMSO or 5-OP-RU (100 nM, 4 hours). Fourteen days later relative to tumor cell inoculation, lungs were harvested and the metastatic burden was quantified by counting colonies on the lung surface. Data presented as mean±SEM. Experiments performed once for (B, C, F) and three times for (D, E) with one representative experiment shown. Significant differences between groups as indicated by crossbars were determined using a one-way ANOVA followed by Tukey's post-hoc test (B, E, F), *p<0.05, **p<0.01, ****p<0.0001
FIG. 5. […] (A) Generation of three independent B16F10 cell lines knocked out for MR1 using three different MR1 sgRNA. […] Empty vector transfected B16F10 cells were used as a positive control. (B, C) Groups of C57BL/6 WT, MR1^−/− or Rag2cγ^−/− mice (n=5-6/group) were i.v. injected with either (B) 1×10^5 B16F10 vector control cells or the indicated clone of B16F10 cells lacking MR1 (sgR1, sgR2, sgR3) or (C) 1×10^4 B16F10-MR1^KO cells (sgR3 clone). On day 14 relative to tumor cell inoculation, lungs were harvested and the metastatic burden was quantified by counting colonies on the lung surface. Data presented as mean±SEM. (D) Re-expression of GFP or GFP-MR1 expressing vector into B16F10-MR1^KO (sgR3 clone). MR1 surface expressions of these cells stimulated with or without 5-OP-RU were assessed by flow cytometry. (E) Groups of C57BL/6 WT mice (n=6/group) were i.v. injected with 1×10^5 B16F10-MR1^KO (sgR3 clone) transfected with empty GFP-expressing vector or MR1-GFP-expressing vector. (F) Groups of C57BL/6 WT or MR1^−/− mice were i.v. injected with parental B16F10 cells treated with vehicle (dd H2O) or AC-6-FP (10 μM, 18 hours). On day 14 relative to tumor cell injection, lungs were harvested and the metastatic burden was quantified by counting colonies on the lung surface. Data presented as mean±SEM. Experiments performed twice for (A-E) and once for (F). Significant differences between groups as indicated by crossbars were determined by a one-way ANOVA followed by Tukey's post-hoc test (A, F), or a Mann-Whitney test (C, E), *p<0.05, **p<0.01, ****p<0.0001.
FIG. 6. […] Groups of C57BL/6 WT or MR1^−/− mice (n=5-6/group) were i.v. injected with (A, B) 1×10^5 B16F10, (C) 1×10^5 parental B16F10 or 2×10^5 B16F10-MR1^KO (sgR3 clone) melanoma cells and (D) 5×10^5 LWT1 melanoma cells or s.c injected with (E) 1×10^6 MCA1956 fibrosarcoma or (F) 1×10^6 SM1WT1 melanoma cells on day 0.

Molecule: CC(=O)C=Nc1c(NC[C@H](O)[C@H](O)[C@H](O)CO)[nH]c(=O)[nH]c1=O [5-OP-RU]
- number of lung metastases (MR1-/- mice i.v. injected with pre-treated B16F10, vs DMSO-treated, day 14): this increase was lost
- number of lung metastases (WT mice i.v. injected with B16F10 pre-treated 100 nM 4 h, vs DMSO-treated, day 14): significantly increased

B1: 8F2.F9: anti-MR1 blocking antibody from hybridoma clone 8F2.F9, IgG1 isotype; heavy chain SEQ ID NO: 14, light chain SEQ ID NO: 18 (antibody, listed as Mus musculus, V domains shown)
VH: MKFSWVIFFLMAVVTGVNSEVQLQQSVAELVRPGASVKLSCTASGFNIKNTYMHWVKKRPELGLEWIGRIDPANGNTNFAPKFQGKATITADTSSNTAYLQLSSLTSEDTAIYYCPRGSGNYYFDYWGQGTTLTVSS
VL: MSSAQFLGLLLLCFQGTRCDIQMTQTTSSLSASLGDRVTISCRASQDISNYLNWYQQKPDGPVKLLIYYTSRLHSGVPSRFSGSGSGTDYSLTINNLAQEDIATYFCQQGNTLPYTFGGGTKLEIK
- number of lung metastases (B16F10 tumor-bearing MR1-/- mice, antibody vs cIg): no further decrease
- suppression of B16F10 lung metastases compared with the 26.5 clone (WT mice, 250 μg/mouse i.p.): superior
- suppression of B16F10 lung metastases, three vs four doses (WT mice, 250 μg/mouse i.p., days -1, 0, 3 vs days -1, 0, 3 and 7): equivalently reduced
- B16F10-MR1 KO (sgR3) lung metastases numbers (WT mice, antibody vs cIg, days -1, 0 and 3): not reduced
